Assay: soluble on expression in E. coli; label from the status in PepcDB or PDB records
In the case of “FPQLPPAPDDYPTFPDTSTWPVVFPELPAAPYGGPCRPPQHTSKAAAPRIPADRLPNHVAIVMDGNGRWATQRGLARTEGHKMGEAVVIDIACGAIELGIKWLSLYAFSTENWKRSPEEVRFLMGFNRDVVRRRRDTLKKLGVRIRWVGSRPRLWRSVINELAVAEEMTKSNDVITINYCVNYGGRTEITEATREIAREVAAGRLNPERITESTIARHLQRPDIPDVDLFLRTSGEQRSSNFMLWQAAYAEYIFQDKLWPDYDRRDLWAACEEYASRTRRFGSA”, the “soluble on expression in E. coli” value is reported as “soluble”.
With “MRKGINMTAELLVNVTPSETRVAYIDGGILQEIHIEREARRGIVGNIYKGRVSRVLPGMQAAFVDIGLDKAAFLHASDIMPHTECVAGEEQKQFTVRDISELVRQGQDLMVQVVKDPLGTKGARLTTDITLPSRYLVFMPGASHVGVSQRIESESERERLKKVVAEYCDEQGGFIIRTAAEGVGEAELASDAAYLKRVWTKVMERKKRPQTRYQLYGELALAQRVLRDFADAELDRIRVDSRLTYEALLEFTSEYIPEMTSKLEHYTGRQPIFDLFDVENEIQRALERKVELKSGGYLIIDQTEAMTTVDINTGAFVGHRNLDDTIFNTNIEATQAIARQLRLRNLGGIIIIDFIDMNNEDHRRRVLHSLEQALSKDRVKTSVNGFSALGLVEMTRKRTRESIEHVLCNECPTCHGRGTVKTVETVCYEIMREIVRVHHAYDSDRFLVYASPAVAEALKGEESHSLAEVEIFVGKQVKVQIEPLYNQEQFDVVMM” the “soluble on expression in E. coli” value was “not soluble”.
With “MGSDKIHHHHHHMTTLDRKIDFTVILSVTKANPNGDPLNGNRPRQNYDGYGEISDVAIKRKIRNRLQDMGESIFVQSNDRNLDGYASLRDRAEANDTIKKLMKTKNASDQVAAEACATWMDVRAFGQVFAFKGDKAGGVSVGVRGPVSIHTATSVAPIDVTSMQITKSVNSESGKERGSDTMGMKHRVDHGVYVFNGSINTQLAEKTNFTQEDAEKFKLALVSLFENDASSARPEGSMEVHKVYWWEHDSKLGRFSSAKVHRAVSVQALTDEPKSFLDYEIKVDALEGFTPEILDGL” the “soluble on expression in E. coli” value was “not soluble”.
With “MKTLVELPLLPLRDVVVYPHMVIPLFVGREKSIEALEAAMTGDKQILLLAQKNPADDDPGEDGLYRMGTVATVLQLLKLPDGTVKVLVEGEQRGQVERFIEEEGHIRAAVQAIDDANVGEREAEVFTRSLLSQFEQYVQLGKKVPAEVLSSLNSIDEPSRLVDTMAAHMALKIEQKQDILEITDLSSRVEHVLALLDAEIDLLQVEKRIRGRVKKQMERSQREYYLNEQMKAIQKELGDIDEGHNEVEELKKRIDAAGLTKEAHTKATAELNKLKQMSPMSAEATVVRSYIDWLLNVPWKAESKVRHDLAKAEDILDADHYGLEEVKERILEYLAVQKRVKKLKGPVLCLVGPPGVGKTSLAESIARATNRKFVRMALGGVRDEAEIRGHRRTYIGSMPGRLIQKMTKVGVRNPLFLLDEIDKMGSDMRGDPASALLEVLDPEQNHNFNDHYLEVDYDLSDVMFLCTANSMNIPAPLLDRMEVIRLPGYTEDEKVNIAAKYLIPKQVQANGLKKGELTFEEGALRDIIRYYTREAGVRSLERQIAKVCRKAVKEHAKLKRIQAVVSSETLENYLGVRKFRYGLAEQQDQIGQVTGLAWTQVGGELLTIEAAVVPGKGQLTKTGSLGDVMAESITAALTVVRSRAQSLGIAADFHEKRDIHIHVPEGATPKDGPSAGIGMCTALVSAITQIPVRADVAMTGEITLRGQVLAIGGLKEKLLAAHRGGIKTVIIPEENVRDLKEIPDNIKSDLVIKPVKWIDEVLQIALQYAPEPLPDAAPEMVAKDEKREPDSKERIST” the “soluble on expression in E. coli” value was “not soluble”.
With “AEGVKTTAEAPAAEPALAAYVPMPRPFLFNLPGPDRARLVEIKVQLMVRGQDDEVLTQKHIPLIEDALLTTFSGADVQKLSTQAGKDELRQLALLSVQNTLQPVTGRKVVEKVLFTGFVMQ” the “soluble on expression in E. coli” value was “not soluble”.
With “MGSDKIHHHHHHMTEDNNLGLEFKYLIVNDMDRKFGLWVNTVGYQSIPPDSPYPLKEHPSGYYFNAEKGRVLREYQLVYITKGRGLFSSDSTPERQVCKGRLMVLFPGQWHTYYPLRQTGWTEYYIGFEGPAIDTIVGDAFLSQERQILEVGINEELVSLFSRALEVAEADKISAQQYLSGIVLHMIGMILSISKNKVFEMSDVDQKIEQAKILMNENVSGNIDPEELAMRLNISYSWFRRVFKEYTGYAPAKYFQELKLRKAKQMLVGTSQSVKEISFFLGFQSTEYFFSFFKKRTGLTPLEYRSFGREE” the “soluble on expression in E. coli” value was “not soluble”.
With “MNKQPGEQPVSCATSTGKSEKERQKDEPPRSRAEAGMMRGGGRLPQPRDTPMEVPNMIAAMPIQMTGFVDLAPHTILDVLAQTTSLMIVQCLEPLEIFTGIETPNRYVVHDMYCRPLLYCMERSSFFARQHQGSQRNFAMQCMDIFGAPVMNCFRSRPCCSCDDFLATEFLGQRIGMMKRECCDDNFHLVGTGSNEPLLVRSPGCACCGGTQVFPVMTYNGAKIGEIVRLYPGFMQEWYTDADTYIVHFPPDLPPILKILLISSTFLIDYTFFENRGGNQRGGYGHGGYGYY” the “soluble on expression in E. coli” value was “not soluble”.
In the case of “MAKQTIIVMSDSHGDSLIVEEVRDRYVGKVDAVFHNGDSELRPDSPLWEGIRVVKGNMDFYAGYPERLVTELGSTKIIQTHGHLFDINFNFQKLDYWAQEEEAAICLYGHLHVPSAWLEGKILFLNPGSISQPRGTIRECLYARVEIDDSYFKVDFLTRDHEVYPGLSKEFSR”, the “soluble on expression in E. coli” value is reported as “soluble”.
For “MGLLDLIGRKRARDKPQNSYEGQDFSYLFGRTTSGENVDEFKTMQTTAVYACVRVLAEAVASLPIHIYERTENGKEKKLDHPLYFLLHDEPNPEMSSFIFRETIMSHLLIWGNAYVQIIRDKSGMVSLLLKQKASVLIRKLLLIIWQRMP”, the “soluble on expression in E. coli” value was “not soluble”.
In the case of “MSTGANRILDDLARLMTDAAGAAQGVRREVEAAFRAQTENWLNSLDVVKREEFEAVKEMAARARDENDALLARIEALEARLAATGPAAADITTGK”, the “soluble on expression in E. coli” value is reported as “not soluble”.
For “MNLKQISAIIIVKNAKQTLLECLNSLKDFDEIILLNNESSDNTLNIANEFKKDFANLHIYHSAFIGFGALKNLALSYAKNDWILSIDADEVLENECIKELKNLELQEDNIIALSRKNLYKGEWIKACGWWPDYVWRIFNKNFTRFNDNLVHESLVLPSNAKKIYLKNGLRHYAFRDISHLIDKMQYYSSLWAKQNIHKKSGVLKANLRAFWTFFRNYFLKNGFLYGYKGFIISVCNALGTFFKYMKLYELQKQKPKTCALIITTYNQKERLKLVLDSVKNLAFLPNEVLIADDGSKEDTARLIEEYQKDFPCPLKHIWQEDEGFRAAKSRNNAIKASKSEYIILIDGDMILEKDFVKNHLEFAKRKVILQGSRVILNKNESEEILKNNNYSLAFNKKGFKNQRSIFLAKCVYKFSKLTKKFFKKSQLVKGSKTCNMSFYKSDFEAIEGFNEKFIGWGREDSEFVARFLFNDGVFKRLKFNALAYHIYHEENSKNMLEINHQIYLETIKNEKTTWRLEHHHHHH”, the “soluble on expression in E. coli” value was “not soluble”.
With “MSKSLKKLVEESREKNQPEVDMSDRGISNMLDVNGLFTLSHITQLVLSHNKLTMVPPNIAELKNLEVLNFFNNQIEELPTQISSLQKLKHLNLGMNRLNTLPRGFGSLPALEVLDLTYNNLSENSLPGNFFYLTTLRALYLSDNDFEILPPDIGKLTKLQILSLRDNDLISLPKEIGELTQLKELHIQGNRLTVLPPELGNLDLTGQKQVFKAENNPWVTPIADQFQLGVSHVFEYIRSETYKYLYGRHMQANPEPPKKNNDKSKKISRKPLAAKNR” the “soluble on expression in E. coli” value was “not soluble”.
For “MGFLERIKKLFSKEEEKQEESILSNPLERLKKGDIIEIDGETWEVTDVALYDYGASKEKEWEIRSASRRGFLSLEEGKIYFFEEIDPEELEPDPGEHFRKYGKPPEYVTYKGKRYRLKYAGKAKYIKNLESYPVTIWEFRSEDGEMIDLEIWDEYEIEAYKGRELQEWEIESILPR”, the “soluble on expression in E. coli” value was “not soluble”.
In the case of “GSHGLCKNLLQEYAQKMNYAIPLYQCQKVETLGRVTQFTCTVEIGGIKYTGAATRTKKDAEISAGRTALLAIQSDT”, the “soluble on expression in E. coli” value is reported as “soluble”.
With “STVTQKNLFPYGDYLNSSQLHMEPDEVDTLREGEDPADRMHPYLAIYDLQPLKAHPLVFAPGVPVIAQVVGTERYTSGSKVGTCTLYSVRLTHGDFTWTTKKKFRHFQELHRDLQRHKVLMSLLPLARFAVTHSPAREAAAEDIPSLPRGGSEGSARHTASKQKYLENYLNRLLTMSFYRNYHAMTEFLEVSQLSFIPDLGSKGLEGVIRKRSGGHRVPGFTFCGRDQVCYRWSKRWLVVKDSFLLYMRPETGAISFVQLFDPGFEVQVGKRSTETRYGVRIDTSHRSLILKCSSYRQARWWGQEITELAQGSGRDFLQLHQHDSYAPPRPGTLARW” the “soluble on expression in E. coli” value was “soluble”.
For “LDSKTLARRVLVAQMLATANNVYPTSQTFREKLANLYGAQFSTCISKKGKVHIVDIDISFVSDKFILEGKSILGEIIHFLRAALFKPLISVEHYQSKSFDLEKEN”, the “soluble on expression in E. coli” value was “not soluble”.
For “MDTQDPLSQKYAISMLFFLLDRGNVKQFELLKIISSNMTIEKLSKILEEAGLINIKREFTGRKSYSFSLTPKGRLVAEQLKKAEEIAQKPSAEIEESVEKIELLLANEEAERIREWSFLLHINIMDDHITEEISGKSPRFFNIYIKRNGNGEFLLWCEQDNSYDCWHVKAAWTYPEVQKMMMHYKGKVKICHICGYENAEEGKFCTNCGTKLE”, the “soluble on expression in E. coli” value was “not soluble”.
With “MSLNPKIITQYKNKKVDAASTMTDISGKNILMGFWHNWPSESGQGYQQGMFAEMPLTGIDKAYNVIAVAFMKGAGIPTFKPYNLSDEAFRAQVAELNAQGRAVLISLGGADAHIELHAGQEEALAYEIIRLVEVYGFDGLDIDLEQAAITFADNRTVLPAALRMVREHYETEGKHFIISMAPEFPYLRSAARDTPLLKEITTYFPFLKEAVAFLTSFRSGGAYLAYIEALEDLYDFIAPQYYNQGGDGIWVDELNLWVTQNNDAHKKEFLYYLTDSLIHGTRGFTKIPANRLAIGLPTNNDAAATGYVINPDDVKYALDTLQADGNPIRGLMTWSVNWDNGTPKVGEAYKWEFAKRYGYLTGGEGHHHHHH” the “soluble on expression in E. coli” value was “soluble”.
With “FGYIVELNWKLSKILNCQPEYVYPKLDELLGCLLTKKPLHEYGMKDEEVRGFAESVLKTQQRLLANNYVELTVDEIEGIYRRLY” the “soluble on expression in E. coli” value was “not soluble”.
In the case of “MRGFAQVWHGLREKKRAECTPLNAFLTYVTLPWNSILNDLLSERQKRPILTFEFDAPAHNHD”, the “soluble on expression in E. coli” value is reported as “not soluble”.
With “MAHHHHHHMSRNVAAEEEWEDVDAPNEEDEEEEDTTINNSDVMMRYKKAALWCNETLQLLLDATKPGAKVHELCKLGDETVAKKLKTMFKGTEKGLAFPTCISVNSCVAHNSPSADDEVASQEIQLGDVVHIDLGIHVDGYCAQVAHTVQVTENNELAADDDASKVISATYGILNTAMRKMRPGVSVYEVTEVIEKAAAHYGVTPVDGVLSHMLKRYIVDSFRCVPQRKVAEHLVHDYTLEAGQVWTLDIVMSSGKGKLKERDVRPTVYKVALDSNYTMKMESARELQREIEAKYQTFPFALRNLETKRARLGLSEMLKHGAVVPYPVLYERDGEVVGHFKITLLITAKKIEPVTGLKPQKAPTLPAYTDELLLEASKLPLTLEKKRKN” the “soluble on expression in E. coli” value was “not soluble”.
For “MDVRQSIHSAHAKTLDTQGLRNEFLVEKVFVADEYTMVYSHIDRIIVGGIMPITKTVSVGGEVGKQLGVSYFLERRELGVINIGGAGTITVDGQCYEIGHRDALYVGKGAKEVVFASIDTGTPAKFYYNCAPAHTTYPTKKVTPDEVSPVTLGDNLTSNRRTINKYFVPDVLETCQLSMGLTELAPGNLWNTMPCHTHERRMEVYFYFNMDDDACVFHMMGQPQETRHIVMHNEQAVISPSWSIHSGVGTKAYTFIWGMVGENQVFDDMDHVAVKDLR”, the “soluble on expression in E. coli” value was “not soluble”.
With “MLDAFAKVVAQADARGEFLTNAQFDALSNLVKEGNKRLDAVNRITSNASTIVANAARALFAEQPQLIQPGGNAYTNRRMAACLRDMEIILRYVTYAILAGDSSVLDDRCLNGLRETYQALGTPGSSVAVAIQKMKDAAIAIANDPNGITPGDCSALMSEIAGYFDRAAAAVA” the “soluble on expression in E. coli” value was “soluble”.
